# Values joined by “and” are separate entries in the source; they are usually repeats but may differ in a detail not shown here. Identical values can stand only once.
# Assays:
# MCF7 cells = test: Proliferation assay (Cell Titer-Glo) with anti-IGFR1 antibody and a chemotherapeutic agent, MCF7 cells; format: cell-based
# Method: (§1) The ability of cells in culture to proliferate when exposed to varying concentrations of the 19D12/15H12 wild-type or 19D12/15H12 LCF/HCA anti-IGFR1 antibody and either paclitaxel, gefitinib, lonafarnib 4-hydroxy tamoxifen or doxorubicin was evaluated in this example.
# (§2) Cell Preparation. […] The cells were trypsinized, counted and resuspended at a concentration of 25000 cells/ml in 10% HI-FBS (heat-inactivated fetal bovine serum) RPMI medium containing NEAA (non-essential amino acids), L-Glu, MEM Vitamins and PS. 100 ul of cell suspension (2500 cells) was added to each well of a BD Falcon 96 well black, clear bottom TC treated plate. The cells were allowed to attach and spread overnight at 37° C. The 10% RPMI solution was replaced with 100 μl RPMI containing 2% HI-FBS containing NEAA, L-Glu, MEM Vitamins and PS.
# (§3) Solution Preparation. All assay reagents were prepared in RPMI containing 2% HI-FBS at 20× concentration and serial diluted for a total of 10 test concentrations per treatment. Every test point was prepared in triplicate on separate assay plates.
# (§4) Reagent 1 and 19D12/15H12 or 19D12/15H12 LCF/HCA were set up individually as dose responses as well as in combination with each other. Cell proliferation was measured on Day4.
# (§5) Assay. Cell proliferation was measured using the Promega Cell Titer-Glo Luminescent Cell Viability Assay (Promega Corp.; Madison, Wis.). This assay provided a method for determining the number of viable cells in culture based on quantitation of ATP in the culture, which indicates the presence of metabolically active cells.
# (§6) The assay reagents and assay plates were equilibrated to room temperature and prepared immediately before addition to the assay plates. One volume of assay reagent was added to each well of the assay plate and shaken on an orbital platform for at least ten minutes to allow for equilibration of the ATP reaction and to ensure total lysis of all cells in the assay plate. […] Luminescence was detected on Wallac 420 Plate Reader with stacker.
# (§7) The units in the tables (proliferation index) are arbitrary and are proportional to the number of viable cells observed in the culture under each respective condition.
# (§8) In Tables 2-6, “ug” indicates micrograms and “uM” indicates micromolar.
# H322 NSCLC cells = test: Proliferation assay (Cell Titer-Glo) with anti-IGFR1 antibody and a chemotherapeutic agent, H322 NSCLC cells; format: cell-based, human; settings: H322, Day4, replicates
# Method: as §1, §2, §3, §4, §5, §6, §7, §8
molecule,measurement,setting,value
"CC/C(=C(\c1ccc(O)cc1)c1ccc(OCCN(C)C)cc1)c1ccccc1 [4-hydroxy tamoxifen, 4-hydroxytamoxifen, reference compound]",proliferation index,MCF7 cells; 4-hydroxy tamoxifen alone 20000 ng/mL,80 and 72 and 87 and 71 and 61 and 67 and 70 and 92
"COc1cc2ncnc(Nc3ccc(F)c(Cl)c3)c2cc1OCCCN1CCOCC1 [Iressa, 4-(3-chloro-4-fluoroanilino)-7-methoxy-6-(3-morpholinopropoxy)quinazoline]",proliferation index,H322 NSCLC cells; Iressa alone 0.0512 nM,59448 and 76032 and 61018 and 59690 and 63252 and 63688 and 60730 and 74464 and 65802
same,proliferation index,H322 NSCLC cells; Iressa alone 0.256 nM,56752 and 73246 and 58760 and 59474 and 57314 and 58384 and 59448 and 66806 and 64854
same,proliferation index,H322 NSCLC cells; Iressa alone 32 nM,45712 and 58272 and 41264 and 40992 and 44162 and 42054 and 43124 and 45062 and 41426
same,proliferation index,H322 NSCLC cells; Iressa alone 160 nM,35044 and 43832 and 32072 and 32728 and 33532 and 35078 and 34864 and 36144 and 34946
same,proliferation index,H322 NSCLC cells; Iressa alone 4000 nM,27738 and 27810 and 24546 and 24376 and 26742 and 28156 and 24528 and 28442 and 27026
same,proliferation index,H322 NSCLC cells; Iressa alone 20000 nM,10818 and 11294 and 10994 and 9734
"19D12/15H12 LCF/HCA: monoclonal, fully-human anti-IGFR1 antibody: mature light chain F (SEQ ID NO: 2) paired with mature heavy chain A (SEQ ID NO: 4) (antibody, listed as Homo sapiens, V domains shown) VH: MEFGLSWVFLVAILKGVQCEVQLVQSGGGLVKPGGSLRLSCAASGFTFSSFAMHWVRQAPGKGLEWISVIDTRGATYYADSVKGRFTISRDNAKNSLYLQMNSLRAEDTAVYYCARLGNFYYGMDVWGQGTTVTVSS VL: MSPSQLIGFLLLWVPASRGEIVLTQSPGTLSVSPGERATLSCRASQSIGSSLHWYQQKPGQAPRLLIKYASQSLSGIPDRFSGSGSGTDFTLTISRLEPEDFAVYYCHQSSRLPHTFGQGTKVEIKRT",proliferation index,H322 NSCLC cells; antibody alone 0.000256 nM (Table 2 plates),73420 and 74154 and 83338 and 74108 and 84234 and 83206 and 80894 and 82674 and 71784
same,proliferation index,H322 NSCLC cells; antibody alone 0.0064 nM (Table 2 plates),61654 and 79014 and 72998 and 69060 and 64818 and 74862 and 76374 and 68206 and 70226
same,proliferation index,H322 NSCLC cells; antibody alone 0.8 nM (Table 2 plates),40944 and 47470 and 52010 and 49636 and 55228 and 53706 and 56984 and 49396 and 47080
same,proliferation index,H322 NSCLC cells; antibody alone 0.8 nM (Table 3 plates),49206
same,proliferation index,H322 NSCLC cells; antibody alone 4 nM (Table 2 plates),42312 and 48884 and 49992 and 50508 and 47256 and 56998 and 54966 and 51438 and 44700
same,proliferation index,H322 NSCLC cells; antibody alone 20 nM (Table 2 plates),44120 and 55106 and 50680 and 49038 and 56114 and 52446 and 51826 and 52490 and 48302
same,proliferation index,H322 NSCLC cells; antibody alone 20 nM (Table 3 plates),51960 and 58598 and 48444 and 49156 and 51020 and 48730 and 49684 and 45064 and 52120
same,proliferation index,H322 NSCLC cells; antibody alone 5.12E−05 nM (Table 2 plates),74408 and 87030 and 83636 and 79810 and 79650 and 90294 and 88940 and 86762 and 74996
"19D12/15H12: 19D12/15H12 wild-type anti-IGFR1 antibody (antibody, listed as Homo sapiens, V domains shown) VL: MSPSQLIGFLLLWVPASRGEIVLTQSPGTLSVSPGERATLSCRASQSIGSSLHWYQQKPGQAPRLLIKYASQSLSGIPDRFSGSGSGTDFTLTISRLEPEDFAVYYCHQSSRLPHTFGQGTKVEIKRT VH: MEFGLSWVFLVAILKGVQCEVQLVQSGGGLVKPGGSLRLSCAASGFTFSSFAMHWVRQAPGKGLEWISVIDTRGATYYADSVKGRFTISRDNAKNSLYLQMNSLRAEDTAVYYCARLGNFYYGMDVWGQGTTVTVSS",Proliferation of MCF7 cells,MCF7 cells; 19D12/15H12 0.00001024 nM + doxorubicin 0.00001024 ug/mL,101144
same,Proliferation of MCF7 cells,MCF7 cells; 19D12/15H12 0.00001024 nM + doxorubicin 0.0000512 ug/mL,102670
same,Proliferation of MCF7 cells,MCF7 cells; 19D12/15H12 0.00001024 nM + doxorubicin 0.000256 ug/mL,100293
same,Proliferation of MCF7 cells,MCF7 cells; 19D12/15H12 0.00001024 nM + doxorubicin 0.0064 ug/mL,95276
same,Proliferation of MCF7 cells,MCF7 cells; 19D12/15H12 0.00001024 nM + doxorubicin 0.8 ug/mL,5132
same,Proliferation of MCF7 cells,MCF7 cells; 19D12/15H12 0.00001024 nM + doxorubicin 4 ug/mL,12606
same,Proliferation of MCF7 cells,MCF7 cells; 19D12/15H12 0.00001024 nM + doxorubicin 20 ug/mL,7789
same,Proliferation of MCF7 cells,MCF7 cells; 19D12/15H12 0.0000512 nM + doxorubicin 0.00001024 ug/mL,111388
same,Proliferation of MCF7 cells,MCF7 cells; 19D12/15H12 0.0000512 nM + doxorubicin 0.0000512 ug/mL,106322
same,Proliferation of MCF7 cells,MCF7 cells; 19D12/15H12 0.0000512 nM + doxorubicin 0.000256 ug/mL,107406
same,Proliferation of MCF7 cells,MCF7 cells; 19D12/15H12 0.0000512 nM + doxorubicin 0.0064 ug/mL,93794
same,Proliferation of MCF7 cells,MCF7 cells; 19D12/15H12 0.0000512 nM + doxorubicin 0.8 ug/mL,5649
same,Proliferation of MCF7 cells,MCF7 cells; 19D12/15H12 0.0000512 nM + doxorubicin 4 ug/mL,11124
same,Proliferation of MCF7 cells,MCF7 cells; 19D12/15H12 0.0000512 nM + doxorubicin 20 ug/mL,6793
same,Proliferation of MCF7 cells,MCF7 cells; 19D12/15H12 0.000256 nM + doxorubicin 0.00001024 ug/mL,86861
same,Proliferation of MCF7 cells,MCF7 cells; 19D12/15H12 0.000256 nM + doxorubicin 0.0000512 ug/mL,76193
same,Proliferation of MCF7 cells,MCF7 cells; 19D12/15H12 0.000256 nM + doxorubicin 0.000256 ug/mL,74312
same,Proliferation of MCF7 cells,MCF7 cells; 19D12/15H12 0.000256 nM + doxorubicin 0.0064 ug/mL,70725
same,Proliferation of MCF7 cells,MCF7 cells; 19D12/15H12 0.000256 nM + doxorubicin 0.8 ug/mL,5698
same,Proliferation of MCF7 cells,MCF7 cells; 19D12/15H12 0.000256 nM + doxorubicin 4 ug/mL,13174
same,Proliferation of MCF7 cells,MCF7 cells; 19D12/15H12 0.000256 nM + doxorubicin 20 ug/mL,6667
same,Proliferation of MCF7 cells,MCF7 cells; 19D12/15H12 0.0064 nM + doxorubicin 0.00001024 ug/mL,60936
same,Proliferation of MCF7 cells,MCF7 cells; 19D12/15H12 0.0064 nM + doxorubicin 0.0000512 ug/mL,60524
same,Proliferation of MCF7 cells,MCF7 cells; 19D12/15H12 0.0064 nM + doxorubicin 0.000256 ug/mL,61820
same,Proliferation of MCF7 cells,MCF7 cells; 19D12/15H12 0.0064 nM + doxorubicin 0.0064 ug/mL,53583
same,Proliferation of MCF7 cells,MCF7 cells; 19D12/15H12 0.0064 nM + doxorubicin 0.8 ug/mL,4702
same,Proliferation of MCF7 cells,MCF7 cells; 19D12/15H12 0.0064 nM + doxorubicin 4 ug/mL,10648
same,Proliferation of MCF7 cells,MCF7 cells; 19D12/15H12 0.0064 nM + doxorubicin 20 ug/mL,7057
same,Proliferation of MCF7 cells,MCF7 cells; 19D12/15H12 0.8 nM + doxorubicin 0.00001024 ug/mL,70307
same,Proliferation of MCF7 cells,MCF7 cells; 19D12/15H12 0.8 nM + doxorubicin 0.0000512 ug/mL,64429
same,Proliferation of MCF7 cells,MCF7 cells; 19D12/15H12 0.8 nM + doxorubicin 0.000256 ug/mL,60055
same,Proliferation of MCF7 cells,MCF7 cells; 19D12/15H12 0.8 nM + doxorubicin 0.0064 ug/mL,56538
same,Proliferation of MCF7 cells,MCF7 cells; 19D12/15H12 0.8 nM + doxorubicin 0.8 ug/mL,4916
same,Proliferation of MCF7 cells,MCF7 cells; 19D12/15H12 0.8 nM + doxorubicin 4 ug/mL,11778
same,Proliferation of MCF7 cells,MCF7 cells; 19D12/15H12 0.8 nM + doxorubicin 20 ug/mL,7693
same,Proliferation of MCF7 cells,MCF7 cells; 19D12/15H12 4 nM + doxorubicin 0.00001024 ug/mL,61992
same,Proliferation of MCF7 cells,MCF7 cells; 19D12/15H12 4 nM + doxorubicin 0.0000512 ug/mL,57611
same,Proliferation of MCF7 cells,MCF7 cells; 19D12/15H12 4 nM + doxorubicin 0.000256 ug/mL,58980
same,Proliferation of MCF7 cells,MCF7 cells; 19D12/15H12 4 nM + doxorubicin 0.0064 ug/mL,53567
same,Proliferation of MCF7 cells,MCF7 cells; 19D12/15H12 4 nM + doxorubicin 0.8 ug/mL,4259
same,Proliferation of MCF7 cells,MCF7 cells; 19D12/15H12 4 nM + doxorubicin 4 ug/mL,12760
same,Proliferation of MCF7 cells,MCF7 cells; 19D12/15H12 4 nM + doxorubicin 20 ug/mL,8097
same,Proliferation of MCF7 cells,MCF7 cells; 19D12/15H12 20 nM + doxorubicin 0.00001024 ug/mL,59288
same,Proliferation of MCF7 cells,MCF7 cells; 19D12/15H12 20 nM + doxorubicin 0.0000512 ug/mL,60307
same,Proliferation of MCF7 cells,MCF7 cells; 19D12/15H12 20 nM + doxorubicin 0.000256 ug/mL,62242
same,Proliferation of MCF7 cells,MCF7 cells; 19D12/15H12 20 nM + doxorubicin 0.0064 ug/mL,54983
same,Proliferation of MCF7 cells,MCF7 cells; 19D12/15H12 20 nM + doxorubicin 0.8 ug/mL,5202
same,Proliferation of MCF7 cells,MCF7 cells; 19D12/15H12 20 nM + doxorubicin 4 ug/mL,10465
same,Proliferation of MCF7 cells,MCF7 cells; 19D12/15H12 20 nM + doxorubicin 20 ug/mL,7489

# Source: US8017735B2, “Anti-IGFR1 antibody therapeutic combinations” (Schering Corporation, priority 2003, dated 2011)
